Results taken from patent publication US20050048477A1 (published 2005).

T1: myristoylated Gal3p (Myr-Gal3p) (yeast, UniProt P13045 1-520, limits assumed, N-myristoylation (acylation) at the N-terminal signal)
T1 construct: also called membrane-associated Gal3p
T1 sequence: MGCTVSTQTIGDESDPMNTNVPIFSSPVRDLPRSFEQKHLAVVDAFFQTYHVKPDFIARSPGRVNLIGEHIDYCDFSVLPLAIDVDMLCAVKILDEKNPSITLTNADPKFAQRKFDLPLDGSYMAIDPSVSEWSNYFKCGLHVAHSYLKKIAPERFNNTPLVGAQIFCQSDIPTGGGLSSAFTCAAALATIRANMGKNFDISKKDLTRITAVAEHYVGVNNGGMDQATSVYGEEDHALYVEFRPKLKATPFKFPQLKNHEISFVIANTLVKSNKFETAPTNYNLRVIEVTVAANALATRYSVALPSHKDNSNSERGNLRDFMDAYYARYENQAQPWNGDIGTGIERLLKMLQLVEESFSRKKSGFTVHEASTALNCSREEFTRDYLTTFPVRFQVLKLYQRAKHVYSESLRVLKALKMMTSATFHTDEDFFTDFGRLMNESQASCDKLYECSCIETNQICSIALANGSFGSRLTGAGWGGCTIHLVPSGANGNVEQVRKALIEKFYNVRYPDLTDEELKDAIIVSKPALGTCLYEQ

B1: Gal80-GFP (other, yeast, UniProt P04387 1-435, looked up)
chain: MDYNKRSSVSTVPNAAPIRVGFVGLNAAKGWAIKTHYPAILQLSSQFQITALYSPKIETSIATIQRLKLSNATAFPTLESFASSSTIDMIVIAIQVASHYEVVMPLLEFSKNNPNLKYLFVEWALACSLDQAESIYKAAAERGVQTIISLQGRKSPYILRAKELISQGYIGDINSIEIAGNGGWYGYERPVKSPKYIYEIGNGVDLVTTTFGHTIDILQYMTSSYFSRINAMVFNNIPEQELIDERGNRLGQRVPKTVPDHLLFQGTLLNGNVPVSCSFKGGKPTKKFTKNLVIDIHGTKGDLKLEGDAGFAEISNLVLYYSGTRANDFPLANGQQAPLDPGYDAGKEIMEVYHLRNYNAIVGNIHRLYQSISDFHFNTKKIPELPSQFVMQGFDFEGFPTLMDALILHRLIESVYKSNMMGSTLNVSNISHYSL
notes: Order of parts follows the name Gal80-GFP; also called Gal80p fused to green fluorescent protein; not shown: green fluorescent protein (GFP amplified from pYGFP1)
B2: Gal80p (other, yeast, UniProt P04387 1-435, looked up)
chain: B1 chain
B3: Myr-Gal4AD (other, yeast)
chain: MGCTVSTQTIGDESDPPLTPSALFGGANFNQSGNIADSSLSFTFTNSSNGPNLITTQTNSQALSQPIASSNVHDNFMNNEITASKIDDGNNSKPLSPGWTDQTAYNAFGITTGMFNTTTMDDVYNYLFDDEDTPPNPKKE
modifications: N-myristoylation at the N-terminal signal
notes: range 758-881; also called membrane-localized Gal4AD
B4: wild type Gal3p (other, yeast, UniProt P13045 1-520, looked up)
chain: MNTNVPIFSSPVRDLPRSFEQKHLAVVDAFFQTYHVKPDFIARSPGRVNLIGEHIDYCDFSVLPLAIDVDMLCAVKILDEKNPSITLTNADPKFAQRKFDLPLDGSYMAIDPSVSEWSNYFKCGLHVAHSYLKKIAPERFNNTPLVGAQIFCQSDIPTGGGLSSAFTCAAALATIRANMGKNFDISKKDLTRITAVAEHYVGVNNGGMDQATSVYGEEDHALYVEFRPKLKATPFKFPQLKNHEISFVIANTLVKSNKFETAPTNYNLRVIEVTVAANALATRYSVALPSHKDNSNSERGNLRDFMDAYYARYENQAQPWNGDIGTGIERLLKMLQLVEESFSRKKSGFTVHEASTALNCSREEFTRDYLTTFPVRFQVLKLYQRAKHVYSESLRVLKALKMMTSATFHTDEDFFTDFGRLMNESQASCDKLYECSCIETNQICSIALANGSFGSRLTGAGWGGCTIHLVPSGANGNVEQVRKALIEKFYNVRYPDLTDEELKDAIIVSKPALGTCLYEQ

Experiments:
[1] = target: T1, myristoylated Gal3p (Myr-Gal3p); experiment: fluorescence microscopy of yeast Sc786 co-expressing Gal80-GFP and Myr-Gal3p, galactose induced
Gal4p = Gal4p (yeast, UniProt P04386 1-881); experiment: formaldehyde cross-linking and chromatin immunoprecipitation at UASGAL, wild type yeast, un-induced and galactose induced
Gal4p, sequence (P04386 whole entry, the tested form may be a part): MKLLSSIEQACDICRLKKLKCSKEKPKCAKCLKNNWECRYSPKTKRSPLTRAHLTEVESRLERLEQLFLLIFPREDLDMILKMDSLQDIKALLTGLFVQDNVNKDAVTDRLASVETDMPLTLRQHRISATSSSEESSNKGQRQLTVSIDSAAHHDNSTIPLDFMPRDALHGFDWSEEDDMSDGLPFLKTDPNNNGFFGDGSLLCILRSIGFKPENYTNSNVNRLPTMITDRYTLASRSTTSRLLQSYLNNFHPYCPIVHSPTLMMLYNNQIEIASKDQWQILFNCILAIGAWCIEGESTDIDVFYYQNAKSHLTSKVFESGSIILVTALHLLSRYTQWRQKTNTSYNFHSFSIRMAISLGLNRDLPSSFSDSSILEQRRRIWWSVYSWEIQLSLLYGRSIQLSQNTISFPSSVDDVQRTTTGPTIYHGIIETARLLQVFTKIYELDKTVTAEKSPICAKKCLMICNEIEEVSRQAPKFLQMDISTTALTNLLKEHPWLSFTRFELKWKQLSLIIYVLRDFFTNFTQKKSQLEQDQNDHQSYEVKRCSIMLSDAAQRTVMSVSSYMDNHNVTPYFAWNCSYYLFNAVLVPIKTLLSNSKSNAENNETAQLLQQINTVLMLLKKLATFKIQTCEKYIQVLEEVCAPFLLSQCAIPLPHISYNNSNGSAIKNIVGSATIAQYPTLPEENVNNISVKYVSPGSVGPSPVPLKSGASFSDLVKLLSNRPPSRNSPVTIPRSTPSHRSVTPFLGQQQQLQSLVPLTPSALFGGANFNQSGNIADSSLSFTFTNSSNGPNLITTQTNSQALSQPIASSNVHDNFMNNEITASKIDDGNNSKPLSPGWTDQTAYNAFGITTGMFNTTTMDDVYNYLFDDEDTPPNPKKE
Protocol: Fold enrichments are indicated (enrichment). […] FIG. 3C illustrates quantitation of promoter occupancy by Gal4p, Gal80p and Gal3p in un-induced and induced cells. Values are means (±standard deviation) of at least five experiments carried out with two sets of independently prepared chromatin samples.
Chromatin immunoprecipitations were performed as described by Braunstein et al., 1993, Genes Dev. 7: 592-604 and Kuras et al. 1999, Nature 399: 609-613. Briefly, wild type Sc723 cells (Blank et al., 1997, Mol. Cell. Biol. 17: 2566-2575) were grown to early exponential growth phase (as measured by absorbance at 600 nm ˜0.4) in 250 mL yeast extract-peptone medium containing 2% glycerol, 3% lactic acid, and 0.05% glucose (−galactose, un-induced). For galactose-induced cultures, galactose was added to the un-induced cultures to a final concentration of 2% and the cultures were incubated for an additional 20 minutes. Formaldehyde was added to a final concentration of 1%, the cultures were incubated for 20 minutes at room temperature, and glycine was added to a final concentration of 300 mM. All the following steps were carried out at 4° C. Cells were washed twice with TBS (20 mM Tris-HCl, 150 mM NaCl, pH 8.0), resuspended in 1 mL lysis buffer (50 mM Tris-HCl pH 8.0, 10 mM EDTA, 1% SDS, 1 mM PMSF), and disrupted by vortexing with glass beads. […]

wild type Gal3p = target: B4; experiment: conclusion from Examples 1-3 (localisation, reporter induction, chromatin immunoprecipitation) in yeast with galactose
Gal80p [2] = target: B2; experiment: membrane-tethered Gal4AD in yeast with a UASGAL-HIS3 reporter, growth without galactose
Text: FIG. 7. Membrane targeted transcriptional activation domain of Gal4p (Gal4AD; a.a. 758-881) activates HIS3 reporter gene expression. A yeast strain harboring a UASGAL-HIS3 reporter was transformed with Myr-Gal4AD. […] Transformed cells were spotted on synthetic medium plates lacking histidine, tryptophan and uracil and containing 3% glycerol/2% lactic acid as carbon source.

Gal80p [3] = target: B2; experiment: cell-based or functional assay

B1
binding result [1]: binds

B2
binding result (Gal4p): binds
binding result (wild type Gal3p): binds

B3
binding result (Gal80p [2]): binds

B4
reduction in MEL1 gene expression level (Gal80p [3]): 2 fold
